Assay results taken from the supplement of paper PMC10567573.

B1: VPS39 (parent)
chain: LRLENNHCHIEESEHVLKKAHKYS
B2: DVL3 (parent)
chain: YNPHPGFPELGYSYGGGSASSQHS

Variants of: B1
Test: protein stability index of a GFP-peptide fusion (GPS, HEK-293T) (PSI 1-6); higher = more stable
Settings: c terminus: a fixed tail appended
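Note: lentivirally expressed fusions sorted by FACS into six bins by GFP to DsRed ratio, PSI derived from sequencing read proportions per bin multiplied by bin number.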

Protein stability index: each site, then its substitutions
L1: F 2.3, H 4.02, G 4.6, A 3.91, C 3.29, E 4.29, D 4.36, I 3.44, M 2.99, K 4.2

Variants of: B2
Test: as above
Settings: c terminus: a fixed tail appended

Protein stability index: each site, then its substitutions
A19: F 2.09, E 2.92, W 1.4, V 2.03, S 2.79, N 3.07, T 2.53, G 3.57, P 2.74, M 2.57, D 3.01, R 3.04, Y 2.4, I 2.3, K 2.94, H 2.3, C 2.19, Q 2.99, L 2.17
F7: W 2.14, S 2.59, R 2.86, Q 3.23, T 3.44, Y 2.68, V 3.01
Y14: C 3.1, L 2.69, P 3.32, G 3.69, D 3.38, E 4.1, Q 3.15, S 3.48, A 3.77, M 2.86, N 3.59, F 2.4, V 3.26, H 3.71, W 2.76, R 3.05, T 3.24, I 2.64, K 2.95
G15: E 3.33, I 2.63, F 2.54, R 2.33, C 2.11, H 2.3, Q 2.63, A 2.43, N 2.63, T 3.05, D 3.37, K 2.91, Y 1.82, W 2.3, P 2.9, S 2.86, L 2.24, M 2.57, V 2.22
E9: D 2.11, R 2.44, G 2.16, P 3.58, N 2.46, S 1.59, H 2.19, C 2.5, T 1.84, Y 1.14, Q 2.04, A 2.3, L 3.13, M 2.69, K 1.8, I 1.18
S20: N 2.74, G 2.97, Y 1.79, W 1.95, C 2.88, T 2.58, L 2.2, D 3.09, E 2.95, R 2.73, Q 2.66, V 3.12, H 2.59, A 3.01, I 2.08, M 2.46, P 2.89, F 2, K 2.65
Y12: G 3.51, L 2.03, R 2.68, K 2.47, T 3.01, H 3.26, V 1.74, Q 3.42, S 3.15, E 3.79, W 2.19, I 2.06, A 2.87, M 3.29, C 2.27, P 1.99, N 3.96, D 4.19, F 3.09
S18: C 2.57, K 3.09, N 3, F 2.58, H 2.53, V 2.72, A 2.94, Q 2.92, R 2.44, T 2.26, I 2.49, M 2.08, G 2.68, D 2.85, Y 2.11, P 2.71, E 3.19, L 1.83, W 1.65
L10: H 3.4, F 2.92, N 3.74, D 3.55, Y 2.57, Q 3.18, I 2.6, W 1.3, G 2.94, R 3.64, S 3.16, K 3.05, P 3.04, V 3.17, M 2.04, T 2.98, C 3.06, E 4.41, A 3.17
H23: R 3, T 3.2, Y 2.92, P 2.79, A 2.62, N 2.99, E 2.6, I 2.9, V 2.32, M 3.04, W 2.19, D 3.14, S 2.62, F 2.37, K 2.87, G 2.78, Q 2.58, L 2.86, C 2.38
S13: G 2.55, H 2.59, E 3.71, C 1.78, L 2.13, M 2.67, F 1.95, A 2.95, T 2.23, Y 2.19, Q 3, D 3.52, P 2.58, W 2.53, R 2.85, I 2.24, N 3.08, K 2.94, V 1.71
P8: R 2.7, I 1.71, E 3.16, M 2.52, N 3, L 2.12, H 2.38, C 2.54, G 3.26, Y 2.33, D 3.37, K 2.38, T 3.11, S 2.73, A 2.37, Q 2.67, V 2.57, W 2.48, F 2.23
S24: A 2.33, N 2.42, D 3.13, M 2.44, F 2.14, I 2.56, V 2.41, E 2.41, Y 2.26, K 2.76, P 3.36, L 2.62, W 2.03, H 2.33, R 1.87, T 1.78, G 3.11
G17: T 2.85, C 3.22, P 2.62, K 2.83, L 2.14, D 2.72, W 1.69, M 2.25, A 2.73, V 1.63, H 2.15, I 1.96, E 3.05, N 2.6, R 2.82, F 1.77, Q 2.87, Y 2.23, S 3.29
Q22: E 2.85, R 2.58, L 1.67, D 3.41, I 2.33, H 2.73, M 2.08, Y 2.4, C 2.13, G 2.62, P 2.98, K 3.4, A 2.23, S 2.71, N 2.6, V 2.33, W 2.06, T 3.69, F 2.88
S21: G 2.61, T 2.64, V 3.41, F 1.88, R 2.86, P 2.88, M 2.89, H 2.55, L 2.24, Q 2.79, D 3.01, Y 2.37, C 2.1, N 2.62, A 3.1, E 2.96, W 1.95, I 2.56, K 2.54
G11: Y 2.66, Q 3.29, E 3.4, H 2.46, A 2.76, L 2.04, C 2.3, D 2.82, R 3.24, N 2.72, W 2.29, K 3.13, V 2.44, M 3.03, S 2.71, P 2.29, T 2.76, I 2.24
G16: P 2.74, S 2.95, V 1.89, L 2.3, K 2.93, R 2.63, N 2.99, E 3.61, F 1.79, D 3.4, I 2, Q 3.02, M 2.79, Y 2.32, H 2.72, W 2.04, A 3.45, C 2.04, T 2.57
